Measurements as given in US9688764B2, “Methods of treating breast cancer by administering anti-human prolactin receptor (PRLR) antibodies” (REGENERON PHARMACEUTICALS, INC., priority 2013, dated 2017).

B1: H1H6765P-DM1: anti-PRLR antibody H1H6765P conjugated to DM1 through an SMCC linker (conjugate)
VH: EVQLVESGGGVVRPGGSLRLSCVGSGFSFDDHGMNWVRQGPGKGLEWVSGFNWNGGSTNYAESVKGRFTISRDNARNSLFLQMNSLRAEDTALYYCVRGRSGWFNDAFDVWGPGTMVTVSS
VL: EIVLTQSPGTLSLSPGERATLSCRASQTINSNYLAWYRQKPGQTPRLLIYGTSSRATGIPDRFSGSGSGTDFSLTISRLEPEDFAVFYCQQYAGLPTFGPGTKVDIK
B2: H1H6782P-DM1: anti-PRLR antibody H1H6782P conjugated to DM1 through an SMCC linker (conjugate)
VH: EVQLVESGGGLVQPGRSLRLSCAASGFTFDDYAMHWVRQAPGKGLEWVSGIIWNSGHIGYGDSVKGRFTISRDNAKKSLYLQMNSLRAEDTALYYCARDSGRYQSYFDYWGQGTLVTVSS
VL: DIQMTQSPSTLSASVGDRVTITCRASHIISSWLAWYQQKPGKAPKVLIFKASSLESGVPSRFSGSGSGTEFTLTISSLQPDDFATYYCQQYNTYSRTFGQGTKVEIK

Columns and labels:
[1] = tested on: HEK293 (293) cells; test: Cell viability (cell kill) assay; type: cell-based; conditions: 293; Table 11; 3 days
In short: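 Anti-PRLR–DM1 ADCs (non-cleavable SMCC linker) or free DM1-SMe, 500 nM to 5 pM for 3 days on parental or hPRLR-overexpressing lines. HEK293: CCK8 OD450; MCF7: Hoechst nuclear counts by imaging.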

[2] = tested on: PC3 cells; test: Cell viability (cell kill) assay; type: cell-based; conditions: Table 11, 3 days
From the text: PRLR-overexpressing cells, including HEK293, PC3, MCF7 and NCI-N87, were generated to assess the ability of anti-PRLR conjugated antibodies to reduce cell viability. For comparative purposes, PC3 and T47D cells with overexpressed ErbB2 were also generated, as well as an MCF7 cell line over-expressing both hPRLR and hErbB2. Briefly, Lipofectamine® 2000-mediated transfection methodology was utilized to generate HEK293 cells expressing human PRLR (HEK293/hPRLR) or human ErbB2 (HEK293/hErbB2). Lipofectamine LTX with Plus Reagent was used to generate PC3 cells expressing human PRLR (PC3/hPRLR) or human ErbB2 (PC3/hErbB2). Lentiviral-mediated transduction was utilized to generate MCF7 cells expressing human PRLR (MCF7/hPRLR), NCI-N87 cells expressing human PRLR (NCI-N87/hPRLR), T47D cells over-expressing human ErbB2 (T47D/hErbB2), and MCF7 cells expressing both human PRLR and human ErbB2 (MCF7/hPRLR/hErbB2). All lines were selected for at least two weeks in complete growth media plus appropriate selection reagents. Stably expressing populations were enriched for PRLR expression via FACS using the anti PRLR antibody Control I.
Next, the ability of anti-PRLR-DM1 antibody-drug conjugates (i.e., anti-PRLR antibodies conjugated to DM1 via a non-cleavable linker [SMCC]) to reduce cell viability was determined using in vitro cell based assays. Cells were seeded in PDL-coated 96 well plates at 1500 to 10000 cells per well in complete growth media and allowed to grow overnight. For cell viability curves, ADCs or free DM1 (as the methyl disulfide derivative DM1-SMe) were added to the cells at final concentrations ranging from 500 nM to 5 pM and incubated for 3 days. The 293, PC3 and T47D cells were incubated with CCK8 (Dojindo, Rockville, Md.) for the final 1-3 hours and the absorbance at 450 nm (OD450) was determined on a Flexstation3 (Molecular Devices, Sunnyvale, Calif.). MCF7 cells were treated with Hoechst 33342 nuclear stain while being fixed with 4% formaldehyde. Images were acquired on the ImageXpress micro XL (Molecular Devices, Sunnyvale, Calif.) and nuclear counts were determined via Columbus image analysis software (Perkin Elmer, Shelton, Conn.). Background OD450 values (PC3, 293, and T47D) or nuclear counts (MCF7) from digitonin (40 nM) treated cells was subtracted from all wells and viability was expressed as a percentage of the untreated controls. IC50 values were determined from a four-parameter logistic equation over a 10-point response curve (GraphPad Prism).
Finally, the potency of anti-PRLR antibodies conjugated to DM1 via the non-cleavable linker SMCC was compared to the cell killing potency of anti-PRLR antibodies conjugated to MMAE via the cleavable linker: mc-vc-PAB (available from Concortis, San Diego, Calif.). Cells used in this experiment were PC3, PC3/hPRLR, MCF7/ATCC and MCF7/PRLR.

[3] = tested on: PC3/hPRLR cells; test: Cell viability (cell kill) assay; type: cell-based, human; conditions: PC3/PRLR; Table 11; 3 days
In short: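 PC3 and PC3/hPRLR (lipofection-generated, FACS-enriched for PRLR) cells exposed 3 days to anti-PRLR ADCs or free DM1-SMe, 500 nM to 5 pM. Viability by CCK8 OD450, digitonin background subtracted, as % of untreated; IC50 from four-parameter fit of 10-point curves.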

[4] = tested on: MCF7 (MCF7/ATCC) cells; test: Cell viability (cell kill) assay, nuclear counts; type: cell-based; conditions: MCF7; Table 12; 3 days
In short: (§1)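 Anti-PRLR ADCs or free DM1-SMe were added at 500 nM to 5 pM final to cells seeded overnight and were incubated 3 days. MCF7 lines were fixed with 4% formaldehyde plus Hoechst 33342, and nuclei were counted by imaging, with digitonin […] background subtracted. Viability was expressed as % of untreated cells, and IC50 was obtained from a 4-parameter fit of a 10-point curve.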

[5] = tested on: MCF7/hPRLR (MCF7/PRLR) cells; test: Cell viability (cell kill) assay, nuclear counts; type: cell-based, human; conditions: Table 12, 3 days
In short: as §1

[6] = tested on: T47D cells; test: Cell viability (cell kill) assay; type: cell-based; conditions: T47D, Table 12, 3 days; for IC50: read-out: IC50
In short: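 T47D cells grown overnight, then exposed 3 days to anti-PRLR ADCs (DM1 via non-cleavable SMCC linker, or other maytansinoid toxins) or free DM1-SMe, 500 nM to 5 pM. Viability by CCK8 OD450, digitonin background subtracted, as % of untreated; IC50 from 10-point four-parameter fit. PRL (15 nM) co-incubation tested separately.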

[7] = tested on: MCF7/PRLR tumors; test: Tumor growth inhibition in xenograft-bearing mice; type: in vivo, NCr nude mice; conditions: MCF7/PRLR tumors TRIAL #2, NCr Nude mice, Day 63
From the text: (§2) Briefly, 20×10^6 MCF7/PRLR cells (ATCC HTB-22 transfected with full length hPRLR as previously described) were implanted subcutaneously into the left mammary fat pad of female NCr nude mice. In other studies, 10×10^6 PC3/PRLR (ATCC CRL-1435 transfected with full length hPRLR as previously described) were implanted subcutaneously into the left flank of male SCID mice. Additionally, 10×10^6 parental T47D (ATCC HTB-133) or […] T47D#11 cells (ATCC HTB-133 serially passaged in vivo as described below) were subcutaneously implanted into the left flank of female CB17 SCID mice. All mice were obtained from Taconic (Hudson, N.Y.). Each bolus of cells was supplemented with a 90-day estrogen release pellet (1.7 mg/pellet; Innovative Research America, Sarasota Fla.). Once tumors had reached an average volume of 250 mm^3, mice were randomized into groups of seven and dosed with anti-PRLR antibody-drug conjugates of the invention or control reagents. Control reagents included PBS vehicle, free methyl-disulfide DM1 (DM1-SMe) and isotype Control 1-DM1.
(§3) In multi-dose studies, mice were dosed once a week for a total of three weeks with tumor volumes and body weights being monitored twice weekly throughout the study. Test ADCs were dosed at 5 and/or 15 mg/kg in the multi-dose studies. In single-dose studies, mice received a single dose of test ADC, and tumor volumes and body weights were monitored twice weekly throughout the study. Test ADCs were dosed at 1, 2.5, 5, and 15 mg/kg in the single-dose studies. Average tumor size as well as tumor growth inhibition relative to the vehicle treated group were calculated for each group. Tumors were measured with calipers twice a week until the average size of the vehicle group reached 1000 mm^3. Tumor size was calculated using the formula (length×width^2)/2. Tumor growth inhibition was calculated according to the following formula: (1−((Tfinal−Tinitial)/(Cfinal−Cinitial)))*100, where T (treated group) and C (control group) represent the mean tumor mass on the day the vehicle group reached 1000 mm^3. […] Results are summarized in Tables 21-25 (multi-dose) and Table 26 (single dose). (NT=not tested in the particular experiment shown).

[8] = tested on: PC3/PRLR tumors; test: Tumor growth inhibition in xenograft-bearing mice; type: in vivo, SCID mice; conditions: PC3/PRLR tumors TRIAL #2, SCID mice, Day 55
From the text: as §2, §3

[9] = tested on: T47D#11 tumors; test: Tumor growth inhibition in xenograft-bearing mice; type: in vivo, CB17 SCID mice; conditions: for Average Tumor Growth Inhibition (%): T47D#11 tumors, multi-dose 5 mg/kg, SCID mice, Day 66; for effect on T47D#11 tumor growth: multi-dose, 5 and 15 mg/kg
From the text: as §2, §3

[10] = Conjugate characterization: protein and linker/payload concentrations, payload loading (UV, MALDI-TOF, SEC-HPLC, RP-HPLC); type: physicochemical; conditions: Anti-PRLR-SMCC-DM1 conjugates; Table 9
In short: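 Anti-PRLR antibodies were conjugated to DM1 via an SMCC linker, then purified by size exclusion and sterile filtered. Protein and linker/payload concentrations came from UV and MALDI-TOF, and monomer content and free linker-payload from SEC-HPLC and RP-HPLC. Payload loading was determined by UV and by native-versus-conjugated mass difference, with yields based on protein.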

Molecule | % Kill [1] [%] | IC50 [1] [nM] | % Kill [2] [%] | % Kill [3] [%] | IC50 [3] [nM] | % Kill [4] [%] | IC50 [4] [nM] | % Kill [5] [%] | IC50 [5] [nM] | % Kill [6] [%] | IC50 [6] [nM] | Final Tumor size mm^3 (mean ± SEM) ([7]; multi-dose 5 mg/kg) [mm^3] | Average Tumor Growth Inhibition (%) ([8]; multi-dose 5 mg/kg) | Average Tumor Growth Inhibition (%) [9] [%] | effect on T47D#11 tumor growth [9] | Payload:Antibody Molar Ratio (MS) [10] | Final Tumor size mm^3 (mean ± SEM) ([7]; multi-dose 15 mg/kg) [mm^3] | Average Tumor Growth Inhibition (%) ([8]; multi-dose 15 mg/kg)
B1 | 86 | 100 | 70 | 70 | 0.57 | 68 | 150 | 84 | 0.18 | 78 | 1.63 | 90 ± 56 | 70 | 100 | potently inhibited tumor growth | 2.3 |  | 
B2 |  | 100 |  | 64 | 0.92 | 57 | 120 | 85 | 0.65 | 74 | 4.19 | 74 ± 34 |  | 90 | potently inhibited tumor growth | 2.8 | 0 ± 0 | 85
